From article PMC10786891, “Massively parallel profiling of RNA-targeting CRISPR-Cas13d”
Changes are numbered by the printed parent chain. Names may count otherwise.

T1: EsCas13d, nuclease-dead (Eubacterium siraeum, UniProt B0MS50, R295A;H300A;R849A;H854A)
T1 sequence: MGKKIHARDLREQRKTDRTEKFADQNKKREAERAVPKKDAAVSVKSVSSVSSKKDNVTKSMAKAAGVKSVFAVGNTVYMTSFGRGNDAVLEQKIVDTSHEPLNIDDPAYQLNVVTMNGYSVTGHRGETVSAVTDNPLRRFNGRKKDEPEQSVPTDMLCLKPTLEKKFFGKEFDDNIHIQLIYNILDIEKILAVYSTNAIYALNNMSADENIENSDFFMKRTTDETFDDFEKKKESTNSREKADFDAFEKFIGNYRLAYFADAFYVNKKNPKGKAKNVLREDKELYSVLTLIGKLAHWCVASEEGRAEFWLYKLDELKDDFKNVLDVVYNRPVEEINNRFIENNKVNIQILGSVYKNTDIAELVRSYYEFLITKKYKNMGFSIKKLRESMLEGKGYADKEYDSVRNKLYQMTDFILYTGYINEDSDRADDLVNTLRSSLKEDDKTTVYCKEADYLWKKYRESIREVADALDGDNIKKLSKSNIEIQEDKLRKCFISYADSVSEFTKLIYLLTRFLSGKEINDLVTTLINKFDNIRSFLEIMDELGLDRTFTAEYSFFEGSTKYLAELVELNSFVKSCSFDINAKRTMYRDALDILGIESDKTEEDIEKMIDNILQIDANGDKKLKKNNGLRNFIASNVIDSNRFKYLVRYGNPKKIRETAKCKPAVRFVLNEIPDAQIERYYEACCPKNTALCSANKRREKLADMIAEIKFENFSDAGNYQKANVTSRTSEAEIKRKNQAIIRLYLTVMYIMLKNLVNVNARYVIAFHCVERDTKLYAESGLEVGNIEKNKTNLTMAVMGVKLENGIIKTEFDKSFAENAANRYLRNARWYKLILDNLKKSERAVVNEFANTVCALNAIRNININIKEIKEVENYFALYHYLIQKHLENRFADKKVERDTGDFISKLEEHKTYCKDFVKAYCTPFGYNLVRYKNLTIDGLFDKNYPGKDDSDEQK

B1: target 1 A1U,G13U (mixed)
RNA 1: CACCCGUGCAAAAAUGCAGGGGUCUAAAACUGAGCGGAUAACCUCUCUAUGG
RNA 2: GGGAAUGGAUCCACAUCUACGAAUUCGUACCAUAGAGAUGUUAUCCGCUCUCCGAGAUCGGAAGAGCACACGU
B2: target 1 insG 3' of 16,insG 3' of 10 (mixed)
RNA 1: B1 RNA 1
RNA 2: GGGAAUGGAUCCACAUCUACGAAUUCGUACCAUAGAGGAGGUUGAUCCGCUCACCGAGAUCGGAAGAGCACACGU
B3: target 1 C7U,C21A (mixed)
RNA 1: B1 RNA 1
RNA 2: B1 RNA 2 with C31A, U39G, C45U, U51A
B4: target 1 A9G,A16G (mixed)
RNA 1: B1 RNA 1
RNA 2: B1 RNA 2 with A36G, U39G, A43G, U51A
B5: target 1 insG 3' of 9,insC 3' of 3 (mixed)
RNA 1: B1 RNA 1
RNA 2: GGGAAUGGAUCCACAUCUACGAAUUCGUACCAUAGAGAGGUUAGUCCGCUCCACCGAGAUCGGAAGAGCACACGU
B6: target 1 insG 3' of 19,insC 3' of 9 (mixed)
RNA 1: B1 RNA 1
RNA 2: B2 RNA 2 with A34G, G35A, A36G, G37A, G44A, A45C
B7: target 1 insU 3' of 7,insA 3' of 7 (mixed)
RNA 1: B1 RNA 1
RNA 2: B2 RNA 2 with G38A, A39G, G41U, U43A, G44U, A45C, C47A
B8: target 1 C6G,A9U (mixed)
RNA 1: B1 RNA 1
RNA 2: B1 RNA 2 with U39G, A43U, C46G, U51A
B9: target 1 insA 3' of 7,insU 3' of 1 (mixed)
RNA 1: B1 RNA 1
RNA 2: B5 RNA 2 with G44U, U45C, C46A, C52A, A53U
B10: target 1 G13U (mixed)
RNA 1: B1 RNA 1
RNA 2: B1 RNA 2 with U51A
B11: target 1 insU 3' of 20,insC 3' of 15 (mixed)
RNA 1: B1 RNA 1
RNA 2: B2 RNA 2 with A34U, G35A, A36G, G37A, A39C, G40A, U42G, G44U
B12: target 1 U3C,A14C (mixed)
RNA 1: B1 RNA 1
RNA 2: B1 RNA 2 with A38C, U39G, U49C, U51A
B13: target 1 insG 3' of 16,insG 3' of 16 (mixed)
RNA 1: B1 RNA 1
RNA 2: B2 RNA 2 with A39G, G40A, U42G, G44U
B14: target 1 A1U,G12C (mixed)
RNA 1: B1 RNA 1
RNA 2: B1 RNA 2 with U39G, G40C
B15: target 1 A1C,G12C (mixed)
RNA 1: B1 RNA 1
RNA 2: B1 RNA 2 with U39G, G40C, U51C
B16: target 1 A1G,G13U (mixed)
RNA 1: B1 RNA 1
RNA 2: B1 RNA 2 with U51G
B17: target 1 A1U,A20C (mixed)
RNA 1: B1 RNA 1
RNA 2: B1 RNA 2 with A32C, U39G
B18: target 1 insU 3' of 20,insC 3' of 3 (mixed)
RNA 1: B1 RNA 1
RNA 2: B5 RNA 2 with A34U, G35A, A36G, G37A, A38G, G39A, U41G, A43U, G44A
B19: target 1 insA 3' of 19,insU 3' of 6 (mixed)
RNA 1: B1 RNA 1
RNA 2: B2 RNA 2 with G35A, A36G, G37A, G44A, A45U, U46C, C48U
B20: target 1 insA 3' of 22,insG 3' of 22 (mixed)
RNA 1: B1 RNA 1
RNA 2: B2 RNA 2 with C31A, A32G, U33C, G35U, G38A, A39G, G40A, U42G, G44U
B21: target 1 insU 3' of 14,insC 3' of 10 (mixed)
RNA 1: B1 RNA 1
RNA 2: B2 RNA 2 with G38A, A39U, G44C
B22: target 1 insA 3' of 8,insG 3' of 7 (mixed)
RNA 1: B1 RNA 1
RNA 2: B5 RNA 2 with G44U, U45A, C47G, G48C, C49G, U50C, C51U
B23: target 1 insU 3' of 18,insG 3' of 9 (mixed)
RNA 1: B1 RNA 1
RNA 2: B2 RNA 2 with G35U, A36G, G37A, G44A, A45G
B24: target 1 A1G,G12C (mixed)
RNA 1: B1 RNA 1
RNA 2: B1 RNA 2 with U39G, G40C, U51G
B25: target 1 insU 3' of 4,insC 3' of 3 (mixed)
RNA 1: B1 RNA 1
RNA 2: B5 RNA 2 with G44U, U45C, C47G, G48C, C49U
B26: target 1 insA 3' of 6 (mixed)
RNA 1: B1 RNA 1
RNA 2: GGGAAUGGAUCCACAUCUACGAAUUCGUACCAUAGAGAGGUUAUCCAGCUCACCGAGAUCGGAAGAGCACACGU
B27: target 1 insA 3' of 11,insG 3' of 7 (mixed)
RNA 1: B1 RNA 1
RNA 2: B5 RNA 2 with U42A, A43U, G44A, C47G, G48C, C49G, U50C, C51U
B28: target 1 insC 3' of 19,insC 3' of 5 (mixed)
RNA 1: B1 RNA 1
RNA 2: B2 RNA 2 with A34C, G35A, A36G, G37A, G44A, A45U, U46C, C48G, G49C
B29: target 1 U11A,G12C (mixed)
RNA 1: B1 RNA 1
RNA 2: B1 RNA 2 with U39G, G40C, U41A, U51A
B30: target 1 insA 3' of 21,insA 3' of 12 (mixed)
RNA 1: B1 RNA 1
RNA 2: B2 RNA 2 with U33A, A34U, G35A, A36G, G37A, U42A, G44U
B31: target 1 U8A,G13U (mixed)
RNA 1: B1 RNA 1
RNA 2: B1 RNA 2 with U44A, U51A
B32: target 1 insC 3' of 17,insA 3' of 17 (mixed)
RNA 1: B1 RNA 1
RNA 2: B2 RNA 2 with A36C, G37A, G38A, A39G, G40A, U42G, G44U
B33: target 1 G12C (mixed)
RNA 1: B1 RNA 1
RNA 2: B1 RNA 2 with U39G, G40C, U51A
B34: target 1 A1U,C6U (mixed)
RNA 1: B1 RNA 1
RNA 2: B1 RNA 2 with U39G, C46U

The binders below were run against T1, EsCas13d, nuclease-dead (assay: crRNA (strand 1, pre-loaded); Mg2+; 40 mM Tris-HCl pH 7.5, 150 mM NaCl, 6 mM MgCl2, 1 mM DTT, 0.1% Tween-20, 0.2 mg/ml BSA; 25 C; 10 min per concentration, then washed). Details: tags: His6-TwinStrep-SUMO cleaved; N-terminal SNAP kept (SNAP-Surface 488); label: 3' end held by stalled T7 RNA polymerase.

First: B1
Second: B2
The Kd of the first is 1.6-fold higher: 49 ± 10 nM for the first, 31.2 ± 2.2 nM for the second.

B3 and B4 are within 1.5-fold of each other in Kd: 24.7 ± 2.5 nM for the first, 37 ± 4 nM for the second.

Going from B5 to B6, the Kd rises from 15.9 ± 0.9 nM to 78 ± 10 nM (4.9-fold). The first binds more tightly here.

B7 and B8 are within 1.5-fold of each other in Kd: 7.75 ± 0.3 nM for the first, 6.92 ± 0.27 nM for the second.

First: B9
Second: B10
The Kd of the first is 4.4-fold lower: 7.7 ± 0.5 nM for the first, 34 ± 4 nM for the second. The first binds more tightly here.

Compared with B11, B12 is 3-fold higher in Kd: 28 ± 2.2 nM for the first, 84 ± 18 nM for the second. The first binds more tightly here.

B13 and B14 are within 1.5-fold of each other in Kd: 22.5 ± 1.4 nM for the first, 17.5 ± 1.7 nM for the second.

First: B15
Second: B16
The Kd of the first is 2.2-fold lower: 19 ± 2.1 nM for the first, 41 ± 7 nM for the second. The first binds more tightly here.

First: B17
Second: B18
The Kd of the first is 2.8-fold higher: 36 ± 8 nM for the first, 12.9 ± 1.3 nM for the second.

Going from B19 to B20, the Kd falls from 22.9 ± 1.6 nM to 15.2 ± 0.9 nM (1.5-fold). The second binds more tightly here.

Going from B21 to B22, the Kd falls from 39 ± 10 nM to 13.3 ± 0.8 nM (2.9-fold).

First: B23
Second: B24
The Kd of the first is 5.5-fold higher: 67 ± 10 nM for the first, 12.2 ± 0.9 nM for the second.

First: B25
Second: B26
The Kd of the first is 5.1-fold higher: 76 ± 22 nM for the first, 15 ± 1.3 nM for the second.

First: B27
Second: B28
The Kd of the first is 4.5-fold lower: 16.7 ± 0.7 nM for the first, 75 ± 21 nM for the second.

Going from B29 to B30, the Kd rises from 7.59 ± 0.28 nM to 48 ± 5 nM (6.3-fold).

Going from B31 to B32, the Kd falls from 53 ± 8 nM to 20.3 ± 1.5 nM (2.6-fold). The second binds more tightly here.

B33 and B34 are within 1.5-fold of each other in Kd: 8.3 ± 0.7 nM for the first, 11.4 ± 0.9 nM for the second.
